Data on one molecule can be found in US20260159566A1 (US Dept. of Health and Human Services, published 2026).

The target of experiment [1] is T1, B-cell Maturation Antigen (BCMA) (human, UniProt Q02223 1-184).
T1 sequence: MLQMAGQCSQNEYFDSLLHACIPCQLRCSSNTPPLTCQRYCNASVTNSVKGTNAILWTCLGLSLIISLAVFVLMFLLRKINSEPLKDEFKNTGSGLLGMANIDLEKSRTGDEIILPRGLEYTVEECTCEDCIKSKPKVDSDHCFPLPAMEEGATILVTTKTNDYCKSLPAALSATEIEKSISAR
The experiment is described as follows: cell-based or functional assay.

Experiment [2] deals with T1, B-cell Maturation Antigen (BCMA). The experiment is described as follows: cell-based or functional assay. This is another data set of the same source.
The target of experiment [3] is T2, BCMA-Fc protein labeled with phycoerythrin (Homo sapiens (Human), UniProt Q02223 1-54, labeled with phycoerythrin).
T2 construct: Staining reagent; also called BCMA-Fc-PE reagent; BCMA-Fc protein reagent; not shown: Fc part
T2 sequence: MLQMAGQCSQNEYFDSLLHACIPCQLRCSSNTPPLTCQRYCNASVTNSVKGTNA
The experiment is described as follows: flow cytometry, BCMA-Fc-PE staining of CAR-transduced T cells. The method, then: (§1) With reference to Table 2, cultured T cells were transduced with the indicated CARs and cultured overnight with the indicated target cells (top row). After the overnight incubation, a standard ELISA assay was performed on the culture supernatant. BCMA-K562 is BCMA⁺. All other targets are BCMA-negative. The percentage of T cells expressing the indicated CAR was determined by staining with a BCMA-Fc-PE reagent followed by flow cytometry. The % CAR⁺ equals the percentage of CD3⁺ cells transduced with each CAR that stained with the BCMA-Fc-PE reagent minus the percentage of untransduced CD3⁺ lymphocytes that stained with the BCMA-Fc-PE reagent. Except for the % CAR⁺ column, all numbers are pg/mL of interferon-gamma.
A general note: In flow cytometry, cells or beads pass a laser one at a time.

Experiment [4] deals with T2, BCMA-Fc protein labeled with …. The description is as above. The method, then:
as §1
This is another data set of the same source.

Where two headings read alike, the source gives them in different places.

B1: FHVH33-CD828Z (other)
chain: EVQLLESGGGLVQPGGSLRLSCAASGFTFSSYAMSWVRQAPGKGLEWVSSISGSGDYIYYADSVKGRFTISRDISKNTLYLQMNSLRAEDTAVYYCAKEGTGANSSLADYRGQGTLVTVSSFVPVFLPAKPTTTPAPRPPTPAPTIASQPLSLRPEACRPAAGGAVHTRGLDFACDIYIWAPLAGTCGVLLLSLVITLYCNHRNRSKRSRLLHSDYMNMTPRRPGPTRKHYQPYAPPRDFAAYRSRVKFSRSADAPAYQQGQNQLYNELNLGRREEYDVLDKRRGRDPEMGGKPRRKNPQEGLYNELQKDKMAEAYSEIGMKGERRRGKGHDGLYQGLSTATKDTYDALHMQALPPR
notes: Chimeric antigen receptor on transduced primary human T cells; also called FHVH33 CAR
As to B1, in experiment [1], the “Tumor-necrosis factor-alpha ELISA, T cells cultured overnight with BCMA-K562 cells” value stood at 2160 pg/mL and the “Tumor-necrosis factor-alpha ELISA, T cells cultured overnight with RPMI-8226 cells” value was 210 pg/mL. Moreover, in experiment [2], the “Interferon-gamma ELISA, T cells cultured overnight with BCMA-K562 cells” value stood at 31300 pg/mL and the “Interferon-gamma ELISA, T cells cultured overnight with RPMI-8226 cells” value stood at 4060 pg/mL. Besides, in experiment [3], the “% CAR+ (percentage of CD3+ cells stained with BCMA-Fc-PE minus untransduced)” value turned out to be 60.5%. Further, the “% CAR+ (percentage of CD3+ cells stained with BCMA-Fc-PE minus untransduced)” value in experiment [4] came out at 60.5%.
